# Measured values from PMC11353242.
# What was measured:
# Test in all cases: pull-down; GFP-CEP55 proteins (355 nM) bound to GFP-Trap Magnetic Agarose beads; taxol-polymerised MTs (545 nM tubulin), pH adapted to 7.5, incubated 1 h at 4 °C; 6 washes; bound MTs detected by Western blot against β tubulin; MTs bound to CEP55^FL set as 100%
# [1] = biological target: His-GFP-CEP55^59–428 (N- and C-termini deleted) (UniProt Q53EZ4)
# [2] = biological target: His-GFP-CEP55^1–428 (C-terminus, aa 429–464, deleted) (UniProt Q53EZ4)
# [3] = biological target: His-GFP-CEP55^59–464 (N-terminus, aa 1–58, deleted) (UniProt Q53EZ4)
substance,measurement,setting,value
Microtubules polymerised with taxol from tubulin prepared from porcine brain (from UniProt P02550 1-451; Q767L7 1-444) (complex),percent reduction of MT binding against CEP55^FL,[1],60%
same,percent reduction of MT binding against CEP55^FL,[2],20%
same,percent reduction of MT binding against CEP55^FL,[3],20%
